The target of this assay is T1, His-tagged soluble human PCDH10 (human).
T1 construct: also called sohPCDH10; sohPCDH10-His
Description: BLI. Conditions: both partners purified.

B1: WEEV virus-like particles (spike E2-E1) (complex)
chain 1: SITDDFTLTSPYLGFCPYCRHSAPCFSPIKIENVWDESDDGSIRIQVSAQFGYNQAGTADVTKFRYMSFDHDHDIKEDSMDKIAISTSGPCRRLGHKGYFLLAQCPPGDSVTVSITSGASENSCTVEKKIRRKFVGREEYLFPPVHGKLVKCHVYDHLKETSAGYITMHRPGPHAYKSYLEEASGEVYIKPPSGKNVTYECKCGDYSTGIVSTRTKMNGCTKAKQCIAYKSDQTKWVFNSPDLIRHTDHSVQGKLHIPFRLTPTVCPVPLAHTPTVTKWFKGITLHLTATRPTLLTTRKLGLRADATAEWITGTTSRNFSVGREGLEYVWGNHEPVRVWAQESAPGDPHGWPHEIIIHYYHRHPVYTVIVLCGVALAILVGTASSAACIAKARRDCLTPYALAPNATVPTALAVLCCIRPTNA
chain 2: FEHATTVPNVPGIPYKALVERAGYAPLNLEITVVSSELTPSTNKEYVTCRFHTVIPSPQVKCCGSLECKASSKADYTCRVFGGVYPFMWGGAQCFCDSENTQLSEAYVEFAPDCTIDHAVALKVHTAALKVGLRIVYGNTTAHLDTFVNGVTPGSSRDLKVIAGPISAAFSPFDHKVVIRKGLVYNYDFPEYGAMKPGAFGDIQASSLDATDIVARTDIRLLKPSVKNIHVPYTQAVSGYEMWKNNSGRPLQETAPFGCKIEVEPLRASNCAYGHIPISIDIPDAAFVRSSESPTILEVSCTVADCIYSADFGGSLTLQYKADREGHCPVHSHSTTAVLKEATTHVTAVGSITLHFSTSSPQANFIVSLCGKKTTCNAECKPPADHIIGEPHKVDQEFQAAVSKTSWNWLLALFGGASSLIVVGLIVLVCSSMLINTRR
By Kd is commonly meant the constant that tells how readily two partners part at equilibrium. A high value points to lower affinity. In the case of B1, binding was put at a Kd of 4.66 nM.

Values taken from publication PMC11528095, “PCDH10 is a neuronal receptor for western equine encephalitis virus” (Cell Research, 2024).
